Earlier results on two substances are cited in paper PMC6928821.

Like-named read-outs stand apart in the source and are kept apart here.

Usually Kd stands for the concentration at which binding is half-saturated.

The target of one data set is p300 (Homo sapiens) (UniProt Q09472).
Data set [1] addresses p300 Taz2 (Homo sapiens) (UniProt Q09472).
Data set [2] has the same target. The source holds these as a separate data set.

Sequence of p300 Taz2 (Homo sapiens) (Q09472 1723-1836): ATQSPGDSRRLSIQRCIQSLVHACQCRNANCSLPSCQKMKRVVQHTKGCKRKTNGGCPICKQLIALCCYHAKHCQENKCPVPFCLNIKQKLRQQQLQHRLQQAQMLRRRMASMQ
Sequence of p53 TAD1 TAD1 (P04637 13-37): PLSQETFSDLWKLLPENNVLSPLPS
Sequence of p300 (Homo sapiens) (Q09472 2-2414): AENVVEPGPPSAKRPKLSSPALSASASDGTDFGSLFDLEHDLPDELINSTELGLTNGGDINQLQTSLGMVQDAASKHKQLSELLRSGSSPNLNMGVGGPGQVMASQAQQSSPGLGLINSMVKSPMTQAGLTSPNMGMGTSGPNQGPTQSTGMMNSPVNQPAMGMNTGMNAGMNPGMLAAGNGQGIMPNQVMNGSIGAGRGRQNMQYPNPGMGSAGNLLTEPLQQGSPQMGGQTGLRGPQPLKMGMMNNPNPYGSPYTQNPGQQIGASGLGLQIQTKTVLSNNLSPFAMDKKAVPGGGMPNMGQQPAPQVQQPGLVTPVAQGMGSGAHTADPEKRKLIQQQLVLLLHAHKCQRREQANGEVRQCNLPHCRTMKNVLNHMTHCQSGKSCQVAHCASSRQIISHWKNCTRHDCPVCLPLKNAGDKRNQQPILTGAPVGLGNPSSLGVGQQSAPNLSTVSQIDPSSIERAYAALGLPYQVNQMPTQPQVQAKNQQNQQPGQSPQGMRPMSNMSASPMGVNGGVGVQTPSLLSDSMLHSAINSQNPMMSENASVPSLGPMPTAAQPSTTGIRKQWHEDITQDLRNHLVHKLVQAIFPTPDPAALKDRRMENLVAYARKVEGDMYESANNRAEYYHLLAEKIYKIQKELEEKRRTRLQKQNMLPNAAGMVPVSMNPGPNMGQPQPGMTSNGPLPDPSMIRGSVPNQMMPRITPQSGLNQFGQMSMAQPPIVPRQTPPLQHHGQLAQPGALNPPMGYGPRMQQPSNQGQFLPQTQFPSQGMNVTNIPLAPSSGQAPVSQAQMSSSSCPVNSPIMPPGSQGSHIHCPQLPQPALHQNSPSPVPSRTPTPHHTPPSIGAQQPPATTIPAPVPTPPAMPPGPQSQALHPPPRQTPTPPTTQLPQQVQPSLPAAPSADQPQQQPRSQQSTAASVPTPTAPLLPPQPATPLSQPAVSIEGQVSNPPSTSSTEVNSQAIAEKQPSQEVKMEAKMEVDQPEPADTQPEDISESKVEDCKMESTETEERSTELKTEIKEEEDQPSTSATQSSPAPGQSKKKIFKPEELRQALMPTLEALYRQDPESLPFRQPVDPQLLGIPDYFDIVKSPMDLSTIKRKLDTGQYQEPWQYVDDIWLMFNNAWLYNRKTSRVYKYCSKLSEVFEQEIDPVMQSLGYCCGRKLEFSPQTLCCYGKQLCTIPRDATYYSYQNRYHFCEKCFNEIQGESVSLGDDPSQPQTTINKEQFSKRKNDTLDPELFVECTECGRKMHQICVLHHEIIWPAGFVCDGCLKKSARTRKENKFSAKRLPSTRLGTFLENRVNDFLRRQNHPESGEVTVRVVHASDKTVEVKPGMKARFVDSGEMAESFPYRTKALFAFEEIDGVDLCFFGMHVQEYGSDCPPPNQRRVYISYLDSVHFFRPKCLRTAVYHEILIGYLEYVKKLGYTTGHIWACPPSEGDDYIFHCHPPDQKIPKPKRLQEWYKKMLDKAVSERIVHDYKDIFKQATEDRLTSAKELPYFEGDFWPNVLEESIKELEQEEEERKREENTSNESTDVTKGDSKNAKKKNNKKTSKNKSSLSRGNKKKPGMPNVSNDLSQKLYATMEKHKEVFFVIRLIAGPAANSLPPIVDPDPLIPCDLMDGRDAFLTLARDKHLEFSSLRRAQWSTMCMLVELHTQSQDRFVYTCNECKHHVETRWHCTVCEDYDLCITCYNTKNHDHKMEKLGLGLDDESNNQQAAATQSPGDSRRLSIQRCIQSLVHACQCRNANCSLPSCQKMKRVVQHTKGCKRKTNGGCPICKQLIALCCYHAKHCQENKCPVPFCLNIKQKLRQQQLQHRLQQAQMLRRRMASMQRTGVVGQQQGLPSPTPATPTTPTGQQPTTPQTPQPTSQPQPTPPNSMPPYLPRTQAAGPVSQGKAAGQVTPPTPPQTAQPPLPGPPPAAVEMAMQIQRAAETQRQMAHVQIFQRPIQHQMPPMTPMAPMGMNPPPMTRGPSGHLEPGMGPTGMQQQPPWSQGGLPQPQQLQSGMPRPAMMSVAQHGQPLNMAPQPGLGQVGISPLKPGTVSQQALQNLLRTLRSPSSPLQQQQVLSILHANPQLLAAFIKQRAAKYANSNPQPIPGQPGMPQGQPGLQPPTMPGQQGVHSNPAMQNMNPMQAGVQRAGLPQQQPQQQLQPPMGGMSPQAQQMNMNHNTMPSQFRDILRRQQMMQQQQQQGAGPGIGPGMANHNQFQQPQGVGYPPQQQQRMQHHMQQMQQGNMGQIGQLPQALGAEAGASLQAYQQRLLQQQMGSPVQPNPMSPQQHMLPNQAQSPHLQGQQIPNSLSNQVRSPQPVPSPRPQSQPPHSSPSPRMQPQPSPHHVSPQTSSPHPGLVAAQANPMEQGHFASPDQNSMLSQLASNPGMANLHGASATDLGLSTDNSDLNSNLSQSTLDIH
Sequence of p53 TAD1 1-39 (P04637 1-39): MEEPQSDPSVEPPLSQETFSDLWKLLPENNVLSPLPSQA

For p53 TAD1 1-39 (from UniProt P04637), in the data set with p300 (Homo sapiens), the Kd was 3000 nM.
On to p53 TAD1 TAD1 (from UniProt P04637), for which the Kd with p300 Taz2 (Homo sapiens) [1] is 3000 nM; in the data set with p300 Taz2 (Homo sapiens) [2], 200 nM.
